In the supplement of paper PMC5998384:

Tested on: HeLa Kyoto
Test: melting temperature (median over replicates), in situ; higher = more thermally stable
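Also: HeLa Kyoto cells synchronized by double thymidine or nocodazole block, proteins quantified by TMT10plex mass spectrometry, three independent biological replicates.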

Sequence of DESI2 (chain, as listed by the source): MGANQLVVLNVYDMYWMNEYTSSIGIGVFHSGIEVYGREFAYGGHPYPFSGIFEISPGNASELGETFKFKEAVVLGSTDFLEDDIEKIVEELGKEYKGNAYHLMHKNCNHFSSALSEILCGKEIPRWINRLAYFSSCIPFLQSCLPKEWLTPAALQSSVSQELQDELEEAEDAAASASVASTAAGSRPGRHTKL

## DESI2
Cell cycle stage: G1/S
  melting temperature: 53.8 °C

## MAAAAAGAGSGPWAAQEKQFPPALLSFFIYNPRFGPREGQEENKILFYHPNEVEKNEKIRNVGLCEAIVQFTRTFSPSKPAKSLHTQKNRQFFNEPEENFWMVMVVRNPIIEKQSKDGKPVIEYQEEELLDKVYSSVLRQCYSMYKLFNGTFLKAMEDGGVKLLKERLEKFFHRYLQTLHLQSCDLLDIFGGISFFPLDKMTYLKIQSFINRMEESLNIVKYTAFLYNDQLIWSGLEQDDMRILYKYLTTSLFPRHIEPELAGRDSPIRAEMPGNLQHYGRFLTGPLNLNDPDAKCRFPKIFVNTDDTYEELHLIVYKAMSAAVCFMIDASVHPTLDFCRRLDSIVGPQLTVLASDICEQFNINKRMSGSEKEPQFKFIYFNHMNLAEKSTVHMRKTPSVSLTSVHPDLMKILGDINSDFTRVDEDEEIIVKAMSDYWVVGKKSDRRELYVILNQKNANLIEVNEEVKKLCATQFNNIFFLD [CCZ1B]
Cell cycle stage: G1/S
  melting temperature: 50.9 °C
Cell cycle stage: mitosis
  melting temperature: 51.8 °C

## MAAHRKHVFVEKVLQRLFPPVPSGQGKREPQTLAVQNPPKKVTSEKVSQKHAEPLTDTGSETPTARRLYTASGPPEGYVPCWPEPSSCGSPENASSGDDTEDQDPHDQPKRRRIRKHKSKKKFKNPNNVLIEQAELEKQQSLLQEKSQRQHTDGTTISKNKKRKLKKKQQIKRKKAAGLAAKAAGVSFMYQPEDSSNEGEGVGEACEEDGVDTSEEDPTLAGEEDVKDTREEDGADASEEDLTRARQEEGADASEEDPTPAGEEDVKDAREEDGVDTIEEDLTRAGEEDGKDTREEDGADASEEDPTWAGEEEGADSGEEDGADASEEDDTITNEKAHSILNFLKSTQEMYFYDGVSRDAASAALADAAEELLDRLASHSMLPSDVSILYHMKTLLLLQDTERLKHALEMFPEHCTMPPDHARVISAFFSYWITHILPEKSSD [ERICH1]
Cell cycle stage: mitosis
  melting temperature: 52.6 °C

## MAEAEESPGDPGTASPRPLFAGLSDISISQDIPVEGEITIPMRSRIREFDSSTLNESVRNTIMRDLKAVGKKFMHVLYPRKSNTLLRDWDLWGPLILCVTLALMLQRDSADSEKDGGPQFAEVFVIVWFGAVTITLNSKLLGGNISFFQSLCVLGYCILPLTVAMLICRLVLLADPGPVNFMVRLFVVIVMFAWSIVASTAFLADSQPPNRRALAVYPVFLFYFVISWMILTFTPQ [YIPF6]
Cell cycle stage: G1/S
  melting temperature: 55 °C
Cell cycle stage: mitosis
  melting temperature: 54.6 °C

## MAGAGSAAVSGAGTPVAGPTGRDLFAEGLLEFLRPAVQQLDSHVHAVRESQVELREQIDNLATELCRINEDQKVALDLDPYVKKLLNARRRVVLVNNILQNAQERLRRLNHSVAKETARRRAMLDSGIYPPGSPGK [SNAPIN]
Cell cycle stage: G1/S
  melting temperature: 53 °C
Cell cycle stage: mitosis
  melting temperature: 54.5 °C

## MAGLEVLFASAAPAITCRQDALVCFLHWEVVTHGYFGLGVGDQPGPNDKKSELLPAGWNNNKDLYVLRYEYKDGSRKLLVKAITVESSMILNVLEYGSQQVADLTLNLDDYIDAEHLGDFHRTYKNSEELRSRIVSGIITPIHEQWEKANVSSPHREFPPATAREVDPLRIPPHHPHTSRQPPWCDPLGPFVVGGEDLDPFGPRRGGMIVDPLRSGFPRALIDPSSGLPNRLPPGAVPPGARFDPFGPIGTSPPGPNPDHLPPPGYDDMYL [PSMF1]
Cell cycle stage: mitosis
  melting temperature: 53 °C

## MAPRALPGSAVLAAAVFVGGAVSSPLVAPDNGSSRTLHSRTETTPSPSNDTGNGHPEYIAYALVPVFFIMGLFGVLICHLLKKKGYRCTTEAEQDIEEEKVEKIELNDSVNENSDTVGQIVHYIMKNEANADVLKAMVADNSLYDPESPVTPSTPGSPPVSPGPLSPGGTPGKHVCGHHLHTVGGVVERDVCHRCRHKRWHFIKPTNKSRESRPRRQGEVTVLSVGRFRVTKVEHKSNQKERRSLMSVSGAETVNGEVPATPVKRERSGTE [RELL1]
Cell cycle stage: G1/S
  melting temperature: 54.7 °C

## MAQEVDTAQGAEMRRGAGAARGRASWCWALALLWLAVVPGWSRVSGIPSRRHWPVPYKRFDFRPKPDPYCQAKYTFCPTGSPIPVMEGDDDIEVFRLQAPVWEFKYGDLLGHLKIMHDAIGFRSTLTGKNYTMEWYELFQLGNCTFPHLRPEMDAPFWCNQGAACFFEGIDDVHWKENGTLVQVATISGNMFNQMAKWVKQDNETGIYYETWNVKASPEKGAETWFDSYDCSKFVLRTFNKLAEFGAEFKNIETNYTRIFLYSGEPTYLGNETSVFGPTGNKTLGLAIKRFYYPFKPHLPTKEFLLSLLQIFDAVIVHKQFYLFYNFEYWFLPMKFPFIKITYEEIPLPIRNKTLSGL [CLN5]
Cell cycle stage: mitosis
  melting temperature: 53.8 °C

## MASGGGGGNTGAGGGPGMGLSLGLGLGLSLGMSEATSEAEEEAATAEAVGRLATTLWLRLRGWEAVLAAAQRLLVWEKPLHSLVTAAALNGLFWLLSSSSLRPFFLLSVSLLAYFLLDLWQPRFLPDVSASSPEEPHSDSEGAGSGARPHLLSVPELCRYLAESWLTFQIHLQELLQYKRQNPAQFCVRVCSGCAVLAVLGHYVPGIMISYIVLLSILLWPLVVYHELIQRMYTRLEPLLMQLDYSMKAEANALHHKHDKRKRQGKNAPPGGDEPLAETESESEAELAGFSPVVDVKKTALALAITDSELSDEEASILESGGFSVSRATTPQLTDVSEDLDQQSLPSEPEETLSRDLGEGEEGELAPPEDLLGRPQALSRQALDSEEEEEDVAAKETLLRLSSPLHFVNTHFNGAGSPPDGVKCSPGGPVETLSPETVSGGLTALPGTLSPPLCLVGSDPAPSPSILPPVPQDSPQPLPAPEEEEALTTEDFELLDQGELEQLNAELGLEPETPPKPPDAPPLGPDIHSLVQSDQEAQAVAEP [FAM134A]
Cell cycle stage: mitosis
  melting temperature: 55.2 °C

## MASLKCSTVVCVICLEKPKYRCPACRVPYCSVVCFRKHKEQCNPETRPVEKKIRSALPTKTVKPVENKDDDDSIADFLNSDEEEDRVSLQNLKNLGESATLRSLLLNPHLRQLMVNLDQGEDKAKLMRAYMQEPLFVEFADCCLGIVEPSQNEES [ZNHIT3]
Cell cycle stage: G1/S
  melting temperature: 50.4 °C
Cell cycle stage: mitosis
  melting temperature: 52.7 °C

## MATQAKRPRVAGPVDGGDLDPVACFLSWCRRVGLELSPKVSERAGGRRTRGGARAALTSPPAQVAVSRQGTVAGYGMVARESVQAGELLFVVPRAALLSQHTCSIGGLLERERVALQSQSGWVPLLLALLHELQAPASRWRPYFALWPELGRLEHPMFWPEEERRCLLQGTGVPEAVEKDLANIRSEYQSIVLPFMEAHPDLFSLRVRSLELYHQLVALVMAYSFQEPLEEEEDEKEPNSPVMVPAADILNHLANHNANLEYSANCLRMVATQPIPKGHEIFNTYGQMANWQLIHMYGFVEPYPDNTDDTADIQMVTVREAALQGTKTEAERHLVYERWDFLCKLEMVGEEGAFVIGREEVLTEEELTTTLKVLCMPAEEFRELKDQDGGGDDKREEGSLTITNIPKLKASWRQLLQNSVLLTLQTYATDLKTDQGLLSNKEVYAKLSWREQQALQVRYGQKMILHQLLELTS [SETD6]
Cell cycle stage: mitosis
  melting temperature: 50.4 °C

## MEADGDGEELARLRSVFAACDANRSGRLEREEFRALCTELRVRPADAEAVFQRLDADRDGAITFQEFARGFLGSLRGGRRRDWGPLDPAPAVSEAGPETHDSEEDEGDEDAAAALATSCGPASPGRAWQDFQARLGDEAKFIPREEQVSTLYQNINLVEPRLIQPYEHVIKNFIREIRLQSTEMENLAIAVKRAQDKAAMQLSELEEEMDQRIQAAEHKTRKDEKRKAEEALSDLRRQYETEVGDLQVTIKKLRKLEEQSKRVSQKEDVAALKKQIYDLSMENQKVKKDLLEAQTNIAFLQSELDALKSDYADQSLNTERDLEIIRAYTEDRNSLERQIEILQTANRKLHDSNDGLRSALENSYSKFNRSLHINNISPGNTISRSSPKFIGHSPQPLGYDRSSRSSYVDEDCDSLALCDPLQRTNCEVDSLPESCFDSGLSTLRDPNEYDSEVEYKHQRGFQRSHGVQESFGGDASDTDVPDIRDEETFGLEDVASVLDWKPQGSVSEGSIVSSSRKPISALSPQTDLVDDNAKSFSSQKAYKIVLAGDAAVGKSSFLMRLCKNEFRENISATLGVDFQMKTLIVDGERTVLQLWDTAGQERFRSIAKSYFRKADGVLLLYDVTCEKSFLNIREWVDMIEDAAHETVPIMLVGNKADIRDTAATEGQKCVPGHFGEKLAMTYGALFCETSAKDGSNIVEAVLHLAREVKKRTDKDDSRSITNLTGTNSKKSPQMKNCCNG [RASEF]
Cell cycle stage: G1/S
  melting temperature: 49.8 °C
Cell cycle stage: mitosis
  melting temperature: 50 °C

## MELIQDTSRPPLEYVKGVPLIKYFAEALGPLQSFQARPDDLLINTYPKSGTTWVSQILDMIYQGGDLEKCNRAPIYVRVPFLEVNDPGEPSGLETLKDTPPPRLIKSHLPLALLPQTLLDQKVKVVYVARNPKDVAVSYYHFHRMEKAHPEPGTWDSFLEKFMAGEVSYGSWYQHVQEWWELSRTHPVLYLFYEDMKENPKREIQKILEFVGRSLPEETMDFMVQHTSFKEMKKNPMTNYTTVPQELMDHSISPFMRKGMAGDWKTTFTVAQNERFDADYAEKMAGCSLSFRSEL [SULT1A4]
Cell cycle stage: G1/S
  melting temperature: 48.5 °C
Cell cycle stage: mitosis
  melting temperature: 49.2 °C
